According to the nanobody polyreactivity screen of Harvey et al. (2022):

Assay: yeast display, Sf9 membrane polyspecificity reagent, FACS + sequencing; frameworks hold sequencing errors
In short: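 Galactose induction of a Saccharomyces cerevisiae BJ5465 synthetic nanobody display library ran 36–48 hours. The cells were then stained for 1 hour at 4 °C with 10% biotinylated, detergent-solubilized Sf9 membrane reagent, pulled down on streptavidin microbeads and FACS-sorted into low and high (top ~1%) gates on expression and reagent-binding fluorescence. Labels for polyreactivity follow the gate of origin.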

Sequence | polyreactivity (PSR sort gate)
QVQLVESGVGLVQAGGSLRFSCAASAMGWSRQAPGKERELVAVINSTGGSTYYADSVKGRFTISRDNAKNTVYLQMNSLKPDATAVYYCARVTRRGPGYTTLYSRYDYWGQGTQVSVSS | low polyreactivity
QVQLVESGVGLVQAGGSLRLICAASGFTFAKYAMGWYRQAPGKERELVAAISRSAGSTYYADSVKGRFTISRDYAKNTVYLQMNSLIPDDTAVYYCAADPLIYDDYYWGQGSQVTVSS | high polyreactivity
QVQLVESGVGLVQAGGSLRLICAASGSTFGYYAMGWYRQAPGKERELVAAITGRGGSTYYADSVKGRFTISRDNAKNTVYLQMNSLKPEDTAVYYCAVGKYRLYYSGAYGFWGQGTQVTVSS | high polyreactivity
QVQLVESGVGLVQAGGSLRLRCAASGFTFRYYAMGWNRQAPGKERELVATMSSAGTTNYADSVKGRFTISRDNAKNTVYLPMNSLKPEDTAVYYCAKDLYYRHWRGGFWGQGTQVTVSS | low polyreactivity
QVQLVESGVGLVQAGGSLRLSCAACGSTFPINAMGWYRQAPGKESELVAAISWSAGSTHYADSVKGRFTISRDNAKNTVYLQMNSLKPEDTAVYYCAAETWGLGDYWGLGTQVTVSS | low polyreactivity
QVQLVESGVGLVQAGGSLRLSCAASGFIFNYNTMGWYRQAPGKERELVAAISSSGGSTYYADSVKGRFTISRDNAKNTVYLQMNSLKPEDTAVYYCAAGANAQRVPNGDYWGQGTQVTVSS | low polyreactivity
QVQLVESGVGLVQAGGSLRLSCAASGFIFRYYTMGWYRPAPGKERELVAVITSGGTTYYADSVKGRFTISRDNAKNTVYLHMNSLIPEDTAVYYCAADYRPRLYGVGVDYWGQGSQVTVSS | low polyreactivity
QVQLVESGVGLVQAGGSLRLSCAASGFIFSSYAMGWYRQAPGKERELVAAISRSGGRTYYADSVKGRFTISRDNAKNTVYLQMNSLKPEDTAVYYCDATWLGTDGDDYWGQGTQVTVSS | high polyreactivity
QVQLVESGVGLVQAGGSLRLSCAASGFISVNNAMGWYRQAPGKERELVAAITDTDDSTYADSVKGRFTISRDNAKNTVYLQMNSLKPEDTAVYYCAAGIIYSNEPNITSYDYWGQGTQVTVSS | low polyreactivity
QVQLVESGVGLVQAGGSLRLSCAASGFTFGDNAMGWYRQAPGKERELVADITSSGSTNYADSVKGRFTISRDNAKNTVYLQMNSLKPEDTAVYYCNAVDSVDAPVYKDLGSEYDSWGQGTQVTVSS | low polyreactivity
QVQLVESGVGLVQAGGSLRLSCAASGFTFPSYTMGWYRQAPGKERELVAAITSGGITYYADSVKGRFTISRDNANYTVYLQMNSLKPEDTAVYYCAVVNFRTSVYYPYRTMDYWGQGTQVTVSS | high polyreactivity
QVQLVESGVGLVQAGGSLRLSCAASGGTFGYYVMGWYRQATGKESELVAAITSGGSTKYADSVKGRFTISRDNAKNTVYLQMNSLNPEDTAVYYCAADVTRREPYQSYDFWGQGTQVTVSS | low polyreactivity
QVQLVESGVGLVQAGGSLRLSCAASGIIFGFYAMGWYRQAPGKERELVAAISVSGGSTNYADSVKGRFTISRDNAKNTVYLQMNSLKPEDTAVYYCAARVRDSLVYGGWDDYWGQGTQVTVSS | high polyreactivity
QVQLVESGVGLVQAGGSLRLSCAASGITFNVNAMGWYRQAPGKERELVARITTSGGSTSYADSVKGRFTISRDNAKNTVYLQMNSLKPEDTAVYYCAADRARYYSEYDYWGQGTQVTVSS | low polyreactivity
QVQLVESGVGLVQAGGSLRLSCAASGLIFPYYAMGWYRQAPGKERELVAAITSGSGTYYADSVKGRFTISRDNGKNTVYIQMNSLKPEDTAVYYCNAYILFWEYGYWGQGTQVTVSS | high polyreactivity
QVQLVESGVGLVQAGGSLRLSCAASGLIIYAYVMGWYRQAPGKERELVATISRSGARTHYADSVKGRFTISRDNAKNTVYLQMNSLKPEDTAVYYCAADVYLSSYEKYGYWGQGTQVTVSS | high polyreactivity
QVQLVESGVGLVQAGGSLRLSCAASGLTFRPNAMGWYRQAPGKERELVASISFSGGSTYYADSVKGRFTISRDNAKNTVYLQMNSLKPEDTAVYYCAADVATTHELDYWGQGTQVTVSS | high polyreactivity
QVQLVESGVGLVQAGGSLRLSCAASGLTFRYYAMGWYRQAPGKERELVAAITRRGSTYYADSVKGRFTISRDNAKNTVYLQMISLKPEVTAVYYCATVTGFHSSPLRDLDYWGQGTQVTVSS | high polyreactivity
QVQLVESGVGLVQAGGSLRLSCAASGLTYYGYVMGWYRQAPGKERELVAAISQSGGTTYYADSVNGRFTISRDNAKNTFYLHMNSLTPEDTAVYYCAADHFYILIFLYGKLTLDYWGQGTQVTVSS | high polyreactivity
QVQLVESGVGLVQAGGSLRLSCAASGRIFAFYTMGWYRQAPGKERELVAASSTRGDSTYYADSVKGRFTISRDNAKNTVYLQMNSLKAEDTAVYYCAKSRQTSGRVRFDYWGQGTQVTVSS | low polyreactivity
QVQLVESGVGLVQAGGSLRLSCAASGRIFAHNAMGWYRQAPGKERELVAAISTGGSTNYADSVKGRFTISRDNAKNTVYLQMNSLKPEDTAVYYCARDAYLPRIADGDGRYELVDYWGQGTQVTVSS | low polyreactivity
QVQLVESGVGLVQAGGSLRLSCAASGRIFGYYTMGWYRQAPGKERELVADSSGGNTSYADSVKGRFTISRDNAKNTVYLQMNSLKPEDTAGYYCAKDLPGAWRGDDYWGQGTQVTVSS | low polyreactivity

Sequence | polyreactivity (PSR sort gate)
QVQLVESGVGLVQAGGSLRLSCAASGRIFIKYAMGWYRQAPGKEREFVAAISGRGGSTYYADSVKGRFTISRDNAKNTVYLQMNSLKPEDTAFYYCAKRFFYSGTAAGMYYWGQGTQVTVSS | high polyreactivity
QVQLVESGVGLVQAGGSLRLSCAASGRIFSFYAMGWYRQAPGKERELVAAITYTDGSTYAVSVKGRFTISRDYAKNTVYLQTNSLKPEDTAVYYCATRYRWTPYDYWGQGTQVTVSS | low polyreactivity
QVQLVESGVGLVQAGGSLRLSCAASGRIFTFNVMGWYRQAPGKERELVAAITFSGGSTYYADSVKGRFTISRDNAKNTVYLQMNRLKTEDTAVYFCAAKISLGDDYWGQGTQVTVSS | low polyreactivity
QVQLVESGVGLVQAGGSLRLSCAASGRIFVKYAMGWYRQAPGQEREFVAAITQGGGRTFYADSVKGRFTSSRDNAKNTVYLQMNSLKPEDTAVYYCAATGRGYGRRYFVVYRYDYWGQGTQVTVSS | high polyreactivity
QVQLVESGVGLVQAGGSLRLSCAASGRIVWGYAMGWYRQAPGKERELVATITRGGSTNYADSVKGRFTISRDNAKHTVYLQMNSLKPEDTAVYYCARDWGKSEYDYWGQGTQVTVSS | high polyreactivity
QVQLVESGVGLVQAGGSLRLSCAASGSIFFYAMGWYRQAPGKERELVADITYTGGSKYADSVKGRFTISRDNAKNTVYLQMNSLKPEDTAVYYCAKLDGGLFDYWGQGTQVTVSS | low polyreactivity
QVQLVESGVGLVQAGGSLRLSCAASGSIFGFYAMGWSRQAPGKERELVAAISDSGDSTYYADSVKGRFTISRDNAKNTVYLQMNSLKPEDTAVYNCATDGRSNYYWGDYWGQGTQVTVSS | low polyreactivity
QVQLVESGVGLVQAGGSLRLSCAASGSIFGFYAMGWYRQAPGKERELVAAITSGDSTHYADSVKGRFTISRDNAKNTVYLQMNSLKPEDTAVYYCAASAPYRYYRSAYYYWGQGTQVTVSS | low polyreactivity
QVQLVESGVGLVQAGGSLRLSCAASGSIFTYNAMGLYRQAPGKERELVAAISRRGGTTYYADSVKGRITISRDNAMNTVYLKMNSLKPEDTAVYYCNVARHYAVESGFWGPGTQVTVSS | high polyreactivity
QVQLVESGVGLVQAGGSLRLSCAASGSIINFYAMGLYRQAPGKERELVAAINYNDINTYYADSVKGRFTISRDNAKNTVYLQMNSLKPEDTAVYYCNAELNVQYLYGYTGEYDYWGQGTQVTVSS | low polyreactivity
QVQLVESGVGLVQAGGSLRLSCAASGSILFYYAMGWYRQAPGKERELVAAITYSGARSYYADSVKGRFTISRDNAKNTVYLQMNSLKPEDTAVYYWAADQVYGIGYEYWGQGTQVTVSS | low polyreactivity
QVQLVESGVGLVQAGGSLRLSCAASGSTFDTYAMGWYRQAPGKERELVAAITSSGSTYYADSVKGRFTISRDNAKNTVYLQMNSLKPEDTAVYYCAADLSYLYAHNPGDYWGQGTQVTVSS | low polyreactivity
QVQLVESGVGLVQAGGSLRLSCAASGSTFEYNAMGWYRQAPGKERELVASSTNYADSVKGRFTISRDNAKNTVYLQMNSLKPEDTAVYYCAREQGVNRNHDYWGQGTQVTVSS | low polyreactivity
QVQLVESGVGLVQAGGSLRLSCAASGSTFGRYAMGWYRQAPGKERELVARISWGGGSTYYADSVKGRFTISRDNAKNTVYILMISLKPEDSAVYDCATRVYRSAVSYDYWGQGTQVTVSS | high polyreactivity
QVQLVESGVGLVQAGGSLRLSCAASGSTFVKYVIGWYRQAPGKERELVAAISRSGGSTYYADSVKGRFTISRDNAKNTDYLQMNSLKPDDTAVYYCAARLFYRLDYRGGYYYWGQGTQVTVSS | high polyreactivity
QVQLVESGVGLVQAGGSLRLSCAPSGSIFGRNAMGWYRQAPGKERELVAAISGGGSTNYSDSVKGRFTISRDNAKNTVYLQMNSLKPEDTAVYYCNTYPGSRHWWYDYWGQGTQGTVSS | high polyreactivity
QVQLVESGVGLVQAGGSLRLSCASSGRIFGHYAMGWYRQAPGTERELVAAISWRGGRTYYADSVKGRFTISRDHAKNTVYLQMNSLKPEDTAVYYCAAGSSRVFRKAGITRPSGLYYYWGQGTQVSVSS | high polyreactivity
QVQLVESGVGLVQAGGSLRLSCASSGSIFGRYTMGWYRQAPGKERELVAAITLRGGSTYYADSVKGRFTISRDNAKNTVYLQMNSLNQEDSAVYYCANDGWKQSAYDYWGQGTQVTVSS | low polyreactivity
QVQLVESGVGLVQAGGSLRLSCVASGLTFSRYAMGWYRQAPGKERELVAAISRRGGTTYYADSVKGRFTISRDNAKNTVYLQMKSLKPEDTAVYYCGAGYITWGSGNWVVTPYAYWGQGTQVSVSS | high polyreactivity
QVQLVESGVGLVQAGGSLRLSSAASGSIFHSYAMGWYRQAPGKERELVASITASGDSTYYADSVKGRFTISRDNAKNTVYLPMNSLKPEDTAVFYCNTQAVYGGGEGGYDYWGQGTQVTVSS | low polyreactivity
QVQLVESGVGLVQAGGSLRLSSAASGSISYSYAMGWYRQAPGKERELVAAITWVGDSTYYADSVKGRFTISRDNAKNTVYLQMNRQKPEDTAVYYCAADLRFTYPVYRHGGGYDYWGQGTQVTVSS | low polyreactivity
